EC50 data for one substance are collected here from publication PMC8533776.

The experiment concerns the target enhanced green fluorescent protein (EGFP) [GFP: P42212]. Put plainly: ELISA; EGFP coated at 100 ng/well in PBS overnight at 4 °C, blocked with 3% BSA; threefold serial dilutions of the binders, 37 °C for 1.5 h; detection by HRP-conjugated anti-Flag antibody, ABTS, OD405. (An ELISA detects its analyte on a solid surface through an enzyme-linked reagent.)

One may read the EC50 as the concentration at which the effect is half-maximal. αEGFP TRIMbody (RBCC-LaG16-LaG2): the EC50 amounted to 0.63 nM.
